From patent US6074842 come the findings set out here.

For the assay, the target named is rat perilipin A (62-kDa phosphoprotein of unstimulated rat adipocytes; 65/67-kDa forms after stimulation) (rat). To be noted: scale: ratio to 1.

As to cAMP-dependent protein kinase (enzyme), the 32P incorporation and shift in SDS-PAGE from 62-kDa to 65/67-kDa in isoproterenol-stimulated rat adipocytes worked out at 5.
